Source: PMC11480844 (2024)

B1: H2-Kb / Ed33 (parent complex)
chain 1: SQLAEENSWALSVHEGESVTVNCSYKTSITALQWYRQKSGKGPAQLILIRSNEREKRNGRLRATLDTSSQSSSLSITATRCEDTAVYFCATDHNNAGAKLTFGGGTRLTVRP
chain 2: DAGVTQTPRHEVAEKGQTIILKCEPVSGHNDLFWYRQTKIQGLELLSYFRSKSLMEDGGAFKDRFKAEMLNSSFSTLKIQPTEPKDSAVYLCASSLYTNQAPLFGEGTRLSVL
chain 3: not shown
chain 4: IQKTPQIQVYSRHPPENGKPNILNCYVTQFHPPHIEIQMLKNGKKIPKVEMSDMSFSKDWSFYILAHTEFTPTETDTYACRVKHDSMAEPKTVYWDRDM
chain 5: SIINFEKL
B2: H2-Kb / Ed39 (parent complex)
chain 1: GEQVEQRPPHLSVREGDSAVIICTYTDPNSYYFFWYKQEPGAGLQLLMKVFSSTEINEGQGFTVLLNKKDKQLSLNLTAAHPGDSAVYFCATMSNYNVLYFGSGTKLTVEP
chain 2: GALVYQYPRRTICKSGTSMRMECQAVGFQATSVAWYRQSPQKTFELIALSTVNSAIKYEQNFTQEKFPISHPNLSFSSMTVLNAYLEDRGLYLCGARDGSYEQYFGPGTRLTVL
chain 3: not shown
chain 4: B1 chain 4
chain 5: SIINFEKL

Variants of: B1
Assay: % of reporter cells activated (NFAT-GFP), raw
Also: test concentration or dose not given here.

Row | Variant | ratio to parent
1 | chain 5 L8C | 0.824
2 | chain 5 L8H | 0.968
3 | chain 5 L8D | 0.731
4 | chain 5 L8E | 0.8
5 | chain 5 L8P | 0.846
6 | chain 5 L8W | 0.881
7 | chain 5 L8M | 0.936
8 | chain 5 L8S | 0.84
9 | chain 5 L8Q | 0.9
10 | chain 5 L8K | 0.941
11 | chain 5 L8N | 0.905
12 | chain 5 L8I | 0.988
13 | chain 5 I3K | 0.656
14 | chain 5 I3D | 0.634
15 | chain 5 I3L | 0.984
16 | chain 5 I3E | 1.06
17 | chain 5 I3F | 0.0275
18 | chain 5 I3G | 1.03
19 | chain 5 I3V | 0.933
20 | chain 5 I3N | 0.932
21 | chain 5 I3S | 1.01
22 | chain 5 I3P | 1.09

Row | Variant | ratio to parent
23 | chain 5 I3W | 0.836
24 | chain 5 I3M | 1.07
25 | chain 5 I3Q | 1.08
26 | chain 5 I2Q | 0.918
27 | chain 5 I2K | 1.01
28 | chain 5 I2F | 0.774
29 | chain 5 I2Y | 0.715
30 | chain 5 I2V | 1.04
31 | chain 5 I2A | 0.885
32 | chain 5 I2R | 0.807
33 | chain 5 I2P | 1.03
34 | chain 5 I2G | 0.456
35 | chain 5 I2H | 0.835
36 | chain 5 S1V | 0.349
37 | chain 5 S1G | 0.48
38 | chain 5 S1E | 1.02
39 | chain 5 S1W | 0.182
40 | chain 5 S1D | 1.05
41 | chain 5 S1I | 0.0715
42 | chain 5 S1H | 0.634
43 | chain 5 S1K | 0.121
44 | chain 5 S1Y | 0.414

Row | Variant | ratio to parent
45 | chain 5 S1C | 0.295
46 | chain 5 E6T | 0.0145
47 | chain 5 E6A | 0.055
48 | chain 5 E6F | 0.101
49 | chain 5 E6C | 0.0452
50 | chain 5 E6I | 0.00689
51 | chain 5 E6Y | 0.182
52 | chain 5 E6R | 0.00434
53 | chain 5 E6D | 0.113
54 | chain 5 N4K | 0.41
55 | chain 5 N4S | 0.00273
56 | chain 5 N4R | 0.168
57 | chain 5 N4H | 0.134
58 | chain 5 N4Q | 0.00449
59 | chain 5 N4C | 0.0904
60 | chain 5 N4P | 0.000438
61 | chain 5 N4E | 0.246
62 | chain 5 N4L | 0.428
63 | chain 5 N4W | 0.0116
64 | chain 5 N4D | 0.135
65 | chain 5 N4A | 0.00624
66 | chain 5 F5T | 1.08

Row | Variant | ratio to parent
67 | chain 5 F5K | 0.862
68 | chain 5 F5P | 0.988
69 | chain 5 F5N | 0.876
70 | chain 5 F5S | 0.958
71 | chain 5 F5H | 0.911
72 | chain 5 F5D | 0.85
73 | chain 5 F5I | 0.655
74 | chain 5 F5C | 1.05
75 | chain 5 F5V | 0.917
76 | chain 5 F5A | 1.1
77 | chain 5 K7E | 0.0117
78 | chain 5 K7M | 0.0938
79 | chain 5 K7R | 0.318
80 | chain 5 K7V | 0.427
81 | chain 5 K7C | 0.063
82 | chain 5 K7H | 0.0435
83 | chain 5 K7P | 0.372
84 | chain 5 K7S | 0.754
85 | chain 5 K7N | 0.216
86 | chain 5 K7Q | 0.0157
87 | chain 5 K7I | 0.018
88 | chain 5 K7A | 0.227

Now from value to variant:

Row | ratio to parent | Variant
89 | 0.913 | chain 5 L8A
90 | 1.01 | chain 5 L8Y
91 | 0.941 | chain 5 L8F
92 | 0.873 | chain 5 L8R
93 | 0.581 | chain 5 I3R
94 | 0.0463 | chain 5 I3Y
95 | 0.895 | chain 5 I3H
96 | 1.04 | chain 5 I3T
97 | 0.918 | chain 5 I2C
98 | 1.01 | chain 5 I2N
99 | 0.897 | chain 5 I2D
100 | 0.981 | chain 5 I2T
101 | 1.05 | chain 5 I2L
102 | 1.03 | chain 5 I2E
103 | 0.461 | chain 5 S1A
104 | 0.392 | chain 5 S1R
105 | 0.0492 | chain 5 S1L
106 | 0.91 | chain 5 S1Q
107 | 0.115 | chain 5 S1P
108 | 0.3 | chain 5 S1F
109 | 0.173 | chain 5 S1N
110 | 0.675 | chain 5 S1M

Row | ratio to parent | Variant
111 | 0.223 | chain 5 E6H
112 | 0.0967 | chain 5 E6M
113 | 0.0303 | chain 5 E6P
114 | 0.218 | chain 5 E6Q
115 | 0.425 | chain 5 E6K
116 | 0.513 | chain 5 E6G
117 | 0.0218 | chain 5 E6V
118 | 0.00413 | chain 5 E6N
119 | 0.0137 | chain 5 E6W
120 | 0.294 | chain 5 N4G
121 | 0.0234 | chain 5 N4F
122 | 0.0148 | chain 5 N4T
123 | 1.01 | chain 5 F5Q
124 | 0.968 | chain 5 F5W
125 | 0.844 | chain 5 F5G
126 | 0.982 | chain 5 F5R
127 | 0.625 | chain 5 F5E
128 | 0.74 | chain 5 K7W
129 | 0.0585 | chain 5 K7T
130 | 0.157 | chain 5 K7Y
131 | 0.204 | chain 5 K7G
132 | 0.0757 | chain 5 K7F

Variants of: B2
Assay: % of reporter cells activated (NFAT-GFP), raw

Row | Variant | ratio to parent
133 | chain 5 S1Y | 0.351
134 | chain 5 I2P | 0.58
135 | chain 5 I2C | 0.926
136 | chain 5 F5G | 0.454
137 | chain 5 E6K | 0.308
138 | chain 5 K7E | 0.00639
139 | chain 5 L8C | 0.483

Other lines, results leading:

Row | ratio to parent | Variant
140 | 0.0616 | chain 5 S1R
141 | 0.00838 | chain 5 N4I
142 | 0.00338 | chain 5 N4Q
143 | 1.03 | chain 5 I2L
144 | 0.689 | chain 5 F5C
145 | 0.359 | chain 5 K7T
146 | 0.0309 | chain 5 K7N
147 | 0.0989 | chain 5 K7G
148 | 0.472 | chain 5 I3W
149 | 0.3 | chain 5 I3Q
150 | 0.788 | chain 5 L8H
